The source of these data is PMC10825657.

Substrate in this data set: Cc1c(CC(=O)NCCCC[C@H](NC(=O)CCN)C(=O)O)c(=O)oc2cc(N)ccc12
As to the kind of experiment: cells, lysate or membranes. The note with it: HBSS with 20 mM Hepes, 300 mOsmol/kg (control); fluorescent substrate 0-500 μM.

Usually Km stands for the substrate concentration at which the rate is half of its maximum.

B1: PepT2 (Oreochromis mossambicus) (protein)
chain: MGKKLFGTNYPVSICFIVVNEFCERFSYYGMKALLTLYFLNYLKWDKDLSTAVYHAFSGLCYFTPILGAFIADSWLGKYKTIIYLSIVYVIGHVVKSVGAIPTVGSTELHIALSMSGLILIALGTGGIKPCVAAFGGDQFGEEHITERQKFFSIFYMSINAGSFLSTIITPILRGDVQCFGGDCYALAFGVPAALMVVALVVFIAGSSLYKRTPPQGNILWEVCNCIGFALKNRWNKSKHDSPRQHWLDWAEEKYSMRLIQEIKMVLRVLVLYIPLPMFWALFDQQGSRWTLQATRMNLAFGNSFAIKPDQMQMLNALLILVFVPIFDLIIYPLVRLCGLKITPLRKMAVGMVFAALAFGAATLVEVNVVKTVVNPAPAGKCLLQVVNLAKGDVSLKAPGTDLFLQSIKYLEDPPGYETVPLSNGELNLEVTGVNGETFSATQKVEEKKAYSVIIYPDAAGITYTLVEDHITKNEDGNPLLRFLNTQPEALNVTVGDKNFYMSSGYNVTHNKTVQRGEYTHATCISNSGKTSKLNLGLLDFGACYTVILTEEAGEIVPHKIEDVKANNVHIAYQIPQYILITAGEVMFSITGLEFSYSQAPANMKSVLQAGWLLTVAFGNVIVLIVAEGAGLEQWIEFLLFACLLLGVCIIFSIMAHFYTYVDPEEMEKLYLENSVKEEDDSDFKKKNNEIQLNKTGKSTRM
Consider B1, for which the Michaelis-Menten constant (Km) was 178.78 ± 19.78 µM.
